The record followed here is patent publication US20210002358A1 (Janssen / Centocor, published 2021).

The assay addresses T1, soluble tau (control tau, recombinant 2N4R tau, SEQ ID NO: 31) (human, UniProt P10636 2-758).
T1 construct: also called Sol-tau; recombinant WT tau
The assay is described as follows: direct ELISA on 2N4R Tau coated at 1 ng/mL. On the procedure:
Binding to recombinant WT (2N4R; SEQ ID NO:31) tau was analyzed by ELISA where full-length Tau protein (1 ng/mL or 10 ng/mL) was directly coated to the plate and incubated with different concentrations of either recombinantly- or hybridoma produced PT82 antibody (FIG. 2). After incubation with antibodies, plates were again washed and 50 μL per well of HRPO labelled anti-mouse antibody (GE Healthcare) (diluted 1:10000 in blocking buffer) was added. After another washing step detection was performed with “One step” TMB (Thermo Scientific) according to the manufacturers' instructions. Plates were analysed in EnVision® 2102 Multilabel Reader (Perkin Elmer, Waltham, Mass., USA). Binding curves were generated using GraphPad Prism7.0 software. […] No substantial difference has been observed between binding profiles of recombinant and hybridoma produced antibodies.
For orientation: An ELISA detects its analyte on a solid surface through an enzyme-linked reagent.

T1 sequence (P10636 other isoform, or with tags, fused parts or gaps limits assumed): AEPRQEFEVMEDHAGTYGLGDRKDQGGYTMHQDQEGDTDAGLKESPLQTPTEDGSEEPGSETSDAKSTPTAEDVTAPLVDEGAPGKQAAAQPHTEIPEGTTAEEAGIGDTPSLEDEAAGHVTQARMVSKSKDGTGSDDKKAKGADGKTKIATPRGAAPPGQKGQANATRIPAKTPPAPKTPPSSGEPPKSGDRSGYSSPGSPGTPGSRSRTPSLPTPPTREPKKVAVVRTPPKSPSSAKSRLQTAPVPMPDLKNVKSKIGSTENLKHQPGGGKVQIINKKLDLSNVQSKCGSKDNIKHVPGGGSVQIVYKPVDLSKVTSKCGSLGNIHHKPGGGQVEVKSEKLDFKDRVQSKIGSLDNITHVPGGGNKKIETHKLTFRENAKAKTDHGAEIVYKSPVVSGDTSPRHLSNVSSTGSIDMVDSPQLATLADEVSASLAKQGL

B1: PT82 mAb (recombinantly expressed, mouse IgG2a/kappa) (antibody, V domains shown)
VH: EVKLEESGGGLVQPGGSMKLSCVASGFTFSNYWMNWIRQSPEKGLEWVAQIRLQSDNYATRYAESVKGRFTISRDESKTSVYLQMNNLRTEDTGIYYCTGGTTYWGQGTLVTVSA
VL: DIVMTQSQKFMSTSVGDRVSITCKASQNVGTAVAWYQQKPGQSPKLLIYSASIRYTGVPDRFTGSGSGTDFTLTINYMQSEDLADYFCQQFSSYPYTFGGGTKLEIK
notes: also called recombinant PT82; mouse PT82
A word on the EC50 (read off the curve): it is the concentration that produces a half-maximal response. In the case of B1, the “EC50 (read off the curve)” value was about 0.04 µg/mL.
